From patent publication US11857697B2, “Compositions and methods for obtaining 3-dimensional lung-like epithelium and related uses thereof” (THE REGENTS OF THE UNIVERSITY OF MICHIGAN, priority 2017, dated 2024)
“Also recorded” adds a separate entry of the source.

How the values were obtained:
[1] = system: 12 week human fetal distal epithelial lung buds; assay: Isolated human fetal lung bud culture in Matrigel: growth/expansion; type: cell-based; details: FGF7 alone, 2, 4 and 6 weeks in culture
From the text: All research utilizing human fetal tissue was approved by the University of Michigan institutional review board. Normal human fetal lungs were obtained from the University of Washington Laboratory of Developmental Biology, and epithelial lung buds were dissected as described below. All experiments were repeated using tissues from 3 individual lungs; 84 day post fertilization of unknown gender, 87 day post fertilization male, and 87 day post fertilization of unknown gender. All tissues were shipped in Belzer's solution at 4 degrees Celsius and were processed and in culture within 24 hours of isolation.
Isolated mouse buds were cultured in 4-6 μl droplets of matrigel, covered with media, and kept at 37 degrees Celsius with 5% Carbon Dioxide. Isolated human fetal lung buds were cultured in 25-50 μl droplets of matrigel, covered with media, and kept at 37 degrees Celsius with 5% Carbon Dioxide.
Distal regions of 12 week fetal lungs were cut into ˜2 mm sections and incubated with dispase, 100% FBS and then 10% FBS as described above, and moved to a sterile petri dish. Mesenchyme was removed by repeated pipetting of distal lung pieces after dispase treatment. Buds were washed with DMEM until mesenchymal cells were no longer visible in the media. Buds were then moved to a 1.5 mL eppendorf tube containing 200 uL of Matrigel, mixed using a p200 pipette, and plated in ˜20 uL droplets in a 24 well tissue culture plate. Plates were placed at 37 degrees Celsius with 5% CO2 for 20 minutes while droplets solidified. 500 uL of media was added to each well containing a droplet. Media was changed every 2-3 days.
All mouse bud, human fetal bud, and hPSC-derived human lung organoids were grown in low-serum basal media (basal media) with added growth factors. […]

[2] = system: hPSC-derived human lung organoids (HLOs); assay: Marker expression (QRT-PCR, immunofluorescence) in HLOs; type: cell-based; details: 42 days 3F then 26 days FGF7 only
Experimental: Based on results in the mouse showing that FGF7 was permissive for differentiation (FIG. 1), experiments were conducted that hypothesized that removing CHIR-99021 and RA from HLOs grown in 3F media would reduce the number of progenitor cells and increase differentiation of mature cell types within HLO cultures. Foregut spheroids were collected and grown in 3F media for 42 days and were cultured for an additional 26 days in 3F media (control) or media containing FGF7 only (FIG. 10A). […] At the end of the experiment, cultures were collected and assessed for gene and protein expression.
RNA was extracted using the MagMAX-96 Total RNA Isolation System (Life Technologies). RNA quality and concentration was determined on a Nanodrop 2000 spectrophotometer (Thermo Scientific). 100 ng of RNA was used to generate a cDNA library using the SuperScript VILO cDNA master mix kit (Invitrogen) according to manufacturer's instructions. qRT-PCR analysis was conducted using Quantitect SYBR Green Master Mix (Qiagen) on a Step One Plus Real-Time PCR system (Life Technologies). Expression was calculated as a change relative to GAPDH expression using arbitrary units, which were calculated by the following equation: [2^(GAPDH Ct−Gene Ct)]×10,000. A Ct value of 40 or greater was considered not detectable. A list of primer sequences used can be found in Table 1.
Mouse bud, human bud, and HLO tissue was fixed in 4% Paraformaldehyde (Sigma) for 2 hours and rinsed in PBS overnight. Tissue was dehydrated in an alcohol series, with 30 minutes each in 25%, 50%, 75% Methanol:PBS/0.05% Tween-20, followed by 100% Methanol, and then 100% Ethanol. Tissue was processed into paraffin using an automated tissue processor (Leica ASP300). Paraffin blocks were sectioned 5-7 uM thick, and immunohistochemical staining was performed as previously described (Spence et al., 2009). A list of antibodies, antibody information and concentrations used can be found in Table 2. PAS Alcian blue staining was performed using the Newcomer supply Alcian Blue/PAS Stain kit (Newcomer Supply, Inc.) according to manufacturer's instructions.

B1: Recombinant Human Fibroblast Growth Factor 7 (protein, UniProt P21781 32-194, looked up)
Fibroblast growth factor 7: CNDMTPEQMATNVNCSSPERHTRSYDYMEGGDIRVRRLFCRTQWYLRIDKRGKVKGTQEMKNNYNIMEIRTVAVGIVAIKGVESEFYLAMNKEGKLYAKKECNEDCNFKELILENHYNTYASAKWTHNGGEMFVALNQKGIPVRGKKTKKEQKTAHFLPMAIT
notes: Recombinant human growth factor from R&D systems, used at 10 ng/mL unless otherwise noted
Growth of human fetal lung buds in vitro [1]: robust growth in vitro after 2 and 4 weeks, but resulted in reduced growth after 6 weeks; also recorded: supported an initial expansion of buds, but the tissue stopped expanding beyond the 4 week period | AECI marker HOPX gene expression ([2]; versus 3F): increased gene expression | AECII marker SFTPC protein and mRNA expression ([2]; versus 3F): increase in both protein and mRNA expression | FOXJ1 mRNA expression (QRT-PCR) ([2]; versus 3F): increased significantly | MUC5AC gene expression (QRT-PCR) ([2]; versus 3F): significant increase | P63 mRNA expression (QRT-PCR) ([2]; versus 3F): significant increase in mRNA expression | SOX2 transcript (QRT-PCR) ([2]; versus 3F): significant increase | SOX9 transcript (QRT-PCR) ([2]; versus 3F): no change | Increase of SCGB1A1 mRNA level over 3F controls ([2]; not statistically significant): ~100 fold
